B1: Ev1 (1-221) mutant: Ev1 fragment of amino acid residues 1-221, comprises EVH1 and a proline-rich domain (protein, UniProt Q9UI08 1-221, looked up, fragment)
chain: MSEQSICQARASVMVYDDTSKKWVPIKPGQQGFSRINIYHNTASNTFRVVGVKLQDQQVVINYSIVKGLKYNQATPTFHQWRDARQVYGLNFASKEEATTFSNAMLFALNIMNSQEGGPSSQRQVQNGPSPDEMDIQRRQVMEQHQQQRQESLERRTSATGPILPPGHPSSAASAPVSCSGPPPPPPPPVPPPPTGATPPPPPPLPAGGAQGSSHDESSMS
B2: Ev1 protein: human Ev1 protein (NCBI accession No. AAF21709), recombinant from E. coli, His tag removed (protein)
chain: MATSEQSICQARASVMVYDDTSKKWVPIKPGQQGFSRINIYHNTASNTFRVVGVKLQDQQVVINYSIVKGLKYNQATPTFHQWRDARQVYGLNFASKEEATTFSNAMLFALNIMNSQEGGPSSQRQVQNGPSPDEMDIQRRQVMEQHQQQRQESLERRTSATGPILPPGHPSSAASAPVSCSGPPPPPPPPVPPPPTGATPPPPPPLPAGGAQGSSHDESSMSGLAAAIAGAKLRRVQRPEDASGGSSPSGTSKSDANRASSGGGGGGLMEEMNKLLAKRRKAASQSDKPAEKKEDESQMEDPSTSPSPGTRAASQPPNSSEAGRKPWERSNSVEKPVSSILSRTPSVAKSPEAKSPLQSQPHSRMKPAGSVNDMALDAFDLDRMKQEILEEVVRELHKVKEEIIDAIRQELSGISTT

Key:
[1] = system: φ×174 or M13 mp18 circular single-stranded DNA; test: Assay of catenation of single-stranded DNA; format: biochemical; conditions: 4 μM protein; 20 μM circular single-stranded DNA; 1 mM MgCl2; 37° C.
Description: (§1) A φ×174 or M13 mp18 circular single-stranded DNA (20 μM) was incubated at 37° C. in 20 mM HEPES-NaOH (pH 7.5), 1 mM DTT, 1 mM MgCl2, and 0.1 mg/ml BSA. Thereafter, the sample was subjected to a deproteination treatment with 0.2% SDS and 1.3 mg/ml proteinase K. The obtained product was separated by 0.9% agarose gel electrophoresis, and a DNA band was then stained with SYBR Gold (Invitrogen).

Ev1 protein = test: Influence of Rad51B or Rad51 on catenation of single-stranded DNA by the Ev1 protein; format: biochemical; conditions: 4 μM Ev1 mutant plus 4 μM Rad51B protein
Description: Lanes 1 and 5 indicate the results of control experiments in which neither the Ev1 nor the Rad51B protein was used. Lanes 2 and 6 indicate the results of experiments that were carried out using a 4 μM Rad51B protein in the absence of the Ev1 protein. Lanes 3 and 7 indicate the results of experiments that were carried out using a 4 μM Ev1 protein in the absence of the Rad51B protein. Lanes 4 and 8 indicate the results of experiments that were carried out using a 4 μM Ev1 protein and a 4 μM Rad51B protein. Further, lanes 1-4 indicate the results of experiments that were carried out in the presence of ATP, and lanes 5-8 indicate the results of experiments that were carried out in the absence of ATP. […] Lanes 1 and 5 indicate the results of control experiments in which neither the Ev1 nor the Rad51 protein was used. Lanes 2 and 6 indicate the results of experiments that were carried out using a 4 μM Rad51 protein in the absence of the Ev1 protein. Lanes 3 and 7 indicate the results of experiments that were carried out using a 4 μM Ev1 protein in the absence of the Rad51 protein. Lanes 4 and 8 indicate the results of experiments that were carried out using a 4 μM Ev1 protein and a 4 μM Rad51 protein. Further, lanes 1-4 indicate the results of experiments that were carried out in the presence of ATP, and lanes 5-8 indicate the results of experiments that were carried out in the absence of ATP.
The Rad51B protein was mixed in a concentration of 0.5 to 8 μM with a 4 μM Ev1 protein, and the activity was then measured. Lane 1 indicates the results of a control experiment in which neither the Rad51B protein nor the Ev1 protein was added, and lane 8 indicates the results of a control experiment in which a 8 μM Rad51B protein was added and no Ev1 protein was added. Lanes 2-7 indicate the results of experiments in which the Rad51B protein was added in concentrations of 0 μM, 0.5 μM, 1.0 μM, 2.0 μM, 4.0 μM, and 8.0 μM, respectively, in the presence of 4 μM Ev1.
as §1

[2] = target: T1, Rad51B protein / Ev1 protein (Homo sapiens, UniProt O15315+Q9UI08); test: Pull-down assay using Ev1- or Rad51B-bound beads; format: binding; conditions: Affi-Gel 10 beads, 10 μg protein, room temperature, 150 minutes
T1 construct: in accordance with the protocols used in purification of the entire-length Ev1 protein; 6xHis (N, cleaved yes); made in house; host or cells: Ev1: E. coli BL21 (DE3) codon plus-RP
T1 sequence (Q9UI08 1-418 isoform Q9UI08-2): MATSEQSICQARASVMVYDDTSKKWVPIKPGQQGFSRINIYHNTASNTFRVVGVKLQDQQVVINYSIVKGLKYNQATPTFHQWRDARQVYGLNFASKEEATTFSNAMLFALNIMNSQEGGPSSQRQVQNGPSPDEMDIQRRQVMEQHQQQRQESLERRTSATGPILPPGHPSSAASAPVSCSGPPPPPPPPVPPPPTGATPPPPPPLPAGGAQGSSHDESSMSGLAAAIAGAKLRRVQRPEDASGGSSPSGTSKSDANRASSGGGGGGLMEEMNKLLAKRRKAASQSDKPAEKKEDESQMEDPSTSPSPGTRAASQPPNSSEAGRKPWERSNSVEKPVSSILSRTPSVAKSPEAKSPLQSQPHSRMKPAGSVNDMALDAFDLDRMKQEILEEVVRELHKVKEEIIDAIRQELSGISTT
T1 sequence (O15315 1-350 isoform O15315-1): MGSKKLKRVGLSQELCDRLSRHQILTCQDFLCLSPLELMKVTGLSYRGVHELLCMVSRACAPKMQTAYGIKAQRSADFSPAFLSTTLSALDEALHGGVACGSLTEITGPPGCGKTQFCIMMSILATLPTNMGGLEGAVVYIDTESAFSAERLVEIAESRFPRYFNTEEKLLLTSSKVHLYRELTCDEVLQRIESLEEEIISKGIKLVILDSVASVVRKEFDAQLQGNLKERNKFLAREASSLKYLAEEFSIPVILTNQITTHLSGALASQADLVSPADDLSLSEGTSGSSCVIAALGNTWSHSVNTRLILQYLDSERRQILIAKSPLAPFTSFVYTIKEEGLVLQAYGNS
Description: Thereafter, the obtained mixture was incubated at 4° C. overnight. The Affi-Gel 10-Ev1 beads were washed 3 times with 500 μl of washing buffer 1 (20 mM potassium phosphate (pH 8.5), 30% glycerol, 700 mM NaCl, 5 mM 2-mercaptoethanol, and 0.05% Triton X-100). The Affi-Gel 10-Rad51B beads were washed 3 times with washing buffer 2 (20 mM HEPES-NaOH (pH 7.3), 30% glycerol, 90 mM NaCl, 2 mM 2-mercaptoethanol, 0.1% Triton X-100, 2 mM ammonium sulfate, and 0.1 mM EDTA). Thereafter, a 50% suspension of such Affi-Gel 10-protein was prepared, and it was then preserved at 4° C.
In order to carry out a binding assay, an Affi-Gel 10-protein suspension (30 μl) was incubated with 10 μg of an Ev1 or Rad51B protein at room temperature for 150 minutes. Affi-Gel 10-Ev1 beads were washed 4 times with 100 μl of buffer 1 (20 mM potassium phosphate (pH 8.5), 30% glycerol, 700 mM NaCl, 5 mM 2-mercaptoethanol, and 0.3% Triton X-100). Affi-Gel 10-Rad51B beads were washed 4 times with 100 μl of buffer 2 (20 mM HEPES-NaOH (pH 7.3), 30% glycerol, 90 mM NaCl, 2 mM 2-mercaptoethanol, 2 mM ammonium sulfate, 0.1 mM EDTA, and 0.35% Triton X-100). An SDS-PAGE sample treatment buffer (2×) was directly mixed with the washed beads, and the obtained mixture was then subjected to a heat treatment at 100° C. for 2 minutes. […]

[3] = system: φ×174 supercoiled double-stranded DNA; test: DNA binding assay (double-stranded DNA); conditions: Ev1 0.2-3.2 μM; 10 μM φ×174 supercoiled double-stranded DNA; 37° C., 15 minutes
Description: (§2) Subsequently, the binding ability of the Ev1 protein to DNA was analyzed. The Ev1 protein was mixed with a φ×174 circular single-stranded DNA (40 μM) or a φ×174 supercoiled double-stranded DNA (10 μM) in 10 μl of a reaction solution (20 mM HEPES (pH 7.5), 1 mM DTT, 1 mM MgCl2, and 100 mg/ml BSA), and the mixture was then reacted at 37° C. for 15 minutes. The reaction product was analyzed by 0.8% agarose gel electrophoresis (3 V/cm, 3 hours) using a 1×TAE (40 mM Tris-acetate and 1 mM EDTA) buffer. A band of DNA was stained with ethidium bromide (FIG. 3).

[4] = system: φ×174 supercoiled double-stranded DNA; test: Activity of Ev1 on supercoiled double-stranded DNA; format: biochemical; conditions: 4 μM Ev1; 10 μM φ×174 supercoiled and nicked double-stranded DNA
Description: Lanes 1 and 2 indicate the results obtained using a φ×174 circular single-stranded DNA. Lanes 3 and 4 indicate the results obtained using a M13 mp18 circular single-stranded DNA. In addition, lanes 1 and 3 indicate the results of control experiments in which no Ev1 protein was used, and lanes 2 and 4 indicate the results of experiments in which the Ev1 protein was used. […] A φ×174 circular single-stranded DNA (20 μM, lanes 1-3), or φ×174 supercoiled and nicked double-stranded DNA molecules (10 μM, lanes 4-6) were used to examine the influence of Ev1 (4 μM, lanes 2 and 5) and Escherichia coli-derived topoisomerase type I (5 units, lanes 3 and 6). Lanes 1 and 4 indicate the results of control experiments in which no Ev1 protein was used.
as §1

[5] = system: φ×174 circular single-stranded DNA; test: DNA binding assay (single-stranded DNA); conditions: Ev1 0.2-3.2 μM; 40 μM φ×174 circular single-stranded DNA; 37° C., 15 minutes
Description: as §2

| Molecule | ssDNA catenation activity (multimer formation of circular single-stranded DNA) [1] | ssDNA catenation activity with Rad51B protein added (Ev1 protein) | binding of Ev1 protein to Rad51B (pull-down) [2] | binding to supercoiled double-stranded DNA [3] | change of supercoiled double-stranded DNA [4] | binding to single-stranded DNA [5] |
| --- | --- | --- | --- | --- | --- | --- |
| B1 | did not exhibit such ssDNA catenation activity | no activity was detected |  |  |  |  |
| B2 | the circular single-stranded DNA formed a multimer |  | directly binds to Rad51B | efficiently binds | the supercoiled double-stranded DNA was not particularly changed | efficiently binds |
